Assay results taken from patent US20050049402A1 (Amgen, published 2005).

Assays:
[1] = biological target: T1, human TNFα (Tumor Necrosis Factor-alpha), soluble (human, UniProt P01375 77-233); experiment: BIACORE, average
T1 construct: Recombinant (R&D 210-TA/CF) in screens; biotinylated in the limited antigen assay; also called hTNFα; H-TNFα

mouse TNFα = biological target: T2, mouse TNFα (mouse, UniProt P06804 80-235); experiment: binding to chimeric TNF proteins
T2 construct: also called M TNFα; murine TNF
T2 sequence: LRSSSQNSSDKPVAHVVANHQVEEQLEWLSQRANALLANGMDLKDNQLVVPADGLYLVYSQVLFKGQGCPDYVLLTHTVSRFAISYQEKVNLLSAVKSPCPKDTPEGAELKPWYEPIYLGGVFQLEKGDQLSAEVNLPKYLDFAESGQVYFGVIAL

human GST-TNFα = biological target: T3, human GST-TNFα (human, UniProt P01375 77-233); experiment: ELISA, plate coated with 0.5 µg/ml human GST-TNFα, HRP goat anti-human IgG detection
T3 construct: also called E. coli expressed soluble human TNF; not shown: GST fusion partner
Description: (§1) Anti-TNFα antibodies were also tested for their ability to bind to soluble recombinant TNFα. Human and monkey (cynomolgous macaque) TNFα were expressed in E. coli as fusion proteins with GST. Binding was assessed by ELISA. […] Bound antibody was detected using an HRP-conjugated goat anti-human IgG antibody.

[2] = biological target: T4, cynomolgus macaque TNFα (KinExA) (cynomolgus macaque, UniProt P79337 77-233, limits assumed); experiment: KinExA
T4 construct: also called monkey TNFα
Description: (§2) The kinetic measurements of the anti-TNFα antibodies were evaluated using KinExA® and BIACORE® technologies. The KinExA® method involves solution-based determination of formal affinity measurements at equilibrium. To measure the binding kinetics of each human anti-TNFα antibody, two experiments in replicates of three were performed. In both experiments a known concentration of antigen was titrated and a different antibody concentration was added to each antigen titration and allowed to reach binding equilibrium. […] The results were analyzed by dual curve analysis. […] In addition, to negate the possibility of avidity effects, Fab fragments were generated by papain cleavage and the kinetic analysis was repeated (see Table 24).
(§3) The KinExA method was also used to measure the Kd describing this binding affinity.

[3] = biological target: T1, human TNFα (Tumor Necrosis …); experiment: cell-based or functional assay
[4] = biological target: T5, H/M BglI chimeric TNFα (human 1-36, murine 37-157) (human; mouse, UniProt P06804 81-235); experiment: ELISA on chimeric/mutant TNFα
T5 construct: Murine range is printed as 37-157 in human-aligned numbering; also called H/MBgl1; Hu/MBgl1
T5 chain: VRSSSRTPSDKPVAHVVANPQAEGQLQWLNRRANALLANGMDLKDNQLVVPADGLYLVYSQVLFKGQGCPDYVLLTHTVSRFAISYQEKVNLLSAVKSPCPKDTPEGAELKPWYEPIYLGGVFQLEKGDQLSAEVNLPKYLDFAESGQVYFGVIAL
From the text: (§4) In order to define the binding site for different antibodies, a number of residues of hTNFα were mutated using site directed mutagenesis. A panel of antibodies was screened for binding by an ELISA assay. […] Histidine at position 73 was deleted, an example is illustrated in Table 19.

human TNFα R31Q mutant = human TNFα R31Q mutant (human, UniProt P01375 77-233); experiment: ELISA on chimeric/mutant TNFα
human TNFα R31Q mutant, sequence (P01375 77-233 R107Q): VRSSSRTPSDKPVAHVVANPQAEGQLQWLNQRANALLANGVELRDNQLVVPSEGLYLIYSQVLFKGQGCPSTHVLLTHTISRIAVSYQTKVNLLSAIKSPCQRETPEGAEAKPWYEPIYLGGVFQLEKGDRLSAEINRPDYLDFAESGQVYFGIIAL
From the text: as §4

[5] = biological target: T6, H/M PvuII chimeric TNFα (human 1-125, murine 126-157) (human; mouse); experiment: ELISA on chimeric/mutant TNFα
T6 construct: also called Hu/M PVu11
T6 chain: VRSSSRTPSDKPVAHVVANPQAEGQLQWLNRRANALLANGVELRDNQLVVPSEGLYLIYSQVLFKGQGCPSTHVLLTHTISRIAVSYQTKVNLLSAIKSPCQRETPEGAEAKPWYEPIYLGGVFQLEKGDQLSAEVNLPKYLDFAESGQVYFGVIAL
From the text: as §4

human TNFα R131Q mutant = human TNFα R131Q mutant (human, UniProt P01375 77-233); experiment: ELISA on chimeric/mutant TNFα
From the text: as §4

[6] = biological target: T7, H/M HincII chimeric TNFα (human 1-91, murine 92-157) (human; mouse); experiment: ELISA on chimeric/mutant TNFα
T7 construct: Murine range printed 92-157 (human-aligned); also called Hu/M Hin C l1
T7 chain: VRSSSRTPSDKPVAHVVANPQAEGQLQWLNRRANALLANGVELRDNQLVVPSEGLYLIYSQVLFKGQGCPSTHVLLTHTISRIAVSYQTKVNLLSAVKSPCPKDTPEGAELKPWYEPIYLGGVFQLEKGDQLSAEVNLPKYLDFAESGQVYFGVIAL
From the text: as §4

[7] = biological target: T1, human TNFα (Tumor Necrosis …); experiment: BIACORE, average N = 5
[8] = biological target: T1, human TNFα (Tumor Necrosis …); experiment: KinExA, TNFα counted as three monomers
Description: as §2

[9] = biological target: T1, human TNFα (Tumor Necrosis …); experiment: cell-based or functional assay; remark: listed apart in the source
[10] = biological target: T1, human TNFα (Tumor Necrosis …); experiment: cell-based or functional assay; remark: listed apart in the source
[11] = biological target: T1, human TNFα (Tumor Necrosis …); experiment: KinExA, TNFα counted as one trimer
Description: as §2

[12] = biological target: T8, monkey (cynomolgous macaque) GST-TNFα (cynomolgous macaque, UniProt P79337 77-233); experiment: ELISA, plate coated with 2 µg/ml monkey (cynomolgus macaque) GST-TNFα, HRP goat anti-human IgG detection
T8 construct: also called E. coli expressed soluble cynomolgous macaque monkey TNF; monkey TNFα; not shown: GST fusion partner
Description: as §1

[13] = biological target: transmembrane mutant TNFα expressed on the surface of CHO cells (UniProt P01375 1-233); experiment: cell-based or functional assay
transmembrane mutant TNFα expressed on the surface of CHO cells, sequence (P01375 whole entry, change not shown, form in doubt): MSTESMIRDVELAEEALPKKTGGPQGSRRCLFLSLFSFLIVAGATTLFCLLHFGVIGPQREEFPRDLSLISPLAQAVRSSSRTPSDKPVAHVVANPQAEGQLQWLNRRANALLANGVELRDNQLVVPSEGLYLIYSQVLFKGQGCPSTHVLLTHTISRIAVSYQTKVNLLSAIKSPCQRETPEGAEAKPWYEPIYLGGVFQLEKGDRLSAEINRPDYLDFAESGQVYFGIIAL

[14] = biological target: T4, cynomolgus macaque TNFα (KinExA); experiment: KinExA, TNFα as a monomer
Description: as §2, §3

binding result (mouse TNFα): no binding
EC50 (read off the curve) (human GST-TNFα): ~4 ng/mL
fold lower affinity than for human TNFα [2]: ~200 fold
binding result [4]: binds
binding result (human TNFα R31Q mutant): no binding
binding result [5]: binds
binding result (human TNFα R131Q mutant): binds
binding result [6]: binds
EC50 (read off the curve) [12]: ~4 ng/mL
ADCC (%) [13]: 16%
CDC (%) [13]: 9%
Kd [14]: 626 pM
B1: 299v2 (antibody, human IgG1, V domains shown)
VH: QVQLVESGGGVVQPGRSLRLSCAASGFTFSSYDMHWVRQAPGKGLEWVAVIWSDGSIKYYADSVKGRFTISRDNSKNTLYLQMNSLRAEDTAVYYCAREVESAMGGFYYNGMDVWGQGTTVTVSS
VL: DIQMTQSPSSLSASVGDRVTITCRASQGIRIDLGWYQQKPGKAPKRLIYAASTLQSGVPSRFSGSGSGTEFIFTISSLQPEDFASYYCLQHKSYPLTFGGGTKVEIK
notes: XENOMAX derived, recombinant human IgG1 kappa; also called 299v2Ab; SC299V2
Kd [1]: 5.7 pM
Whole Blood IC50, TNFα-induced IL-8 production [3]: 131 pM
koff [7]: 1.03e-05 s⁻¹
kon [7]: 2.16e+06 M⁻¹ s⁻¹
Kd [8]: 3.2 pM
IC50 1 hr Pre-incubation, TNF induced apoptosis in MCF-7 cells [9]: 18.6 pM
IC50 18 hr Pre-incubation, TNF induced apoptosis in MCF-7 cells [9]: 1.6 pM
In vivo Potency (IC50), ALT, hTNFα/D-GalN hepatic injury in mice [10]: 50000 pM
In vivo Potency (IC50), human TNFα-induced IL-6 in mice [10]: 43000 pM
Kd [11]: 1.07 pM
